Earlier results as cited in doi:10.1101/2024.11.09.622800.
Read-outs that look alike come from different tables or passages of the source.

How the values were obtained:
Glu325 = Glu325 (UniProt position 325, TLHMFEVPFLL)
Asp85 = Asp85 (UniProt position 98, WARYADWLFTT)
Glu172 = Glu172 (UniProt position 200, QVMATEGYQSS)
Asp118 = Asp118 (UniProt position 200, YVYKPDNTHEQ); experiment: stability
Asp26 = Asp26 (UniProt position 26, KLVVVDFSATW)
Lys132 = Lys132 (UniProt position 214, KSEAQKKKEKL); experiment: stability
Asp41 = Asp41 (UniProt position 123, LLLVDDPETKH); experiment: stability
Cys48 = Cys48 (UniProt position 48, SLKASCLYGQL)
Asp75 = Asp75 (UniProt position 122, TWREADINYTS)

For “Lactose permease LacY (Escherichia coli (not stated in the article))”, the pKa (Glu325) is given as 10.5.

In the case of “Bacteriorhodopsin (Halobacterium salinarum (not stated in the article))”, the pKa (Asp85; conformational state associated by the authors with PDB 1IW6) is listed as 7.2 and the pKa (Asp85; conformational state associated by the authors with PDB 1UCQ (retinal forms a salt bridge with Asp85)) is listed as 2.6.

For “Xylanase (endo-1,4-beta-xylanase), wild type (Bacillus circulans (not stated in the article))”, the pKa (Glu172) is listed as 6.7.

In the case of “Staphylococcal nuclease (SNase) N118D variant (Staphylococcus aureus; N118D)”, the pKa (Asp118) is given as 7.0.

For “Xylanase, mutant with Glu78 covalently linked to substrate (PDB 3VZO) (Bacillus circulans (not stated in the article); not stated (the article says only that 'another nearby residue is mutated'))”, the pKa (Glu172; Glu78 covalently linked to substrate (covalent intermediate), nearby residue mutated) is given as 2.8.

For Thioredoxin (Homo sapiens), the pKa (Asp26; oxidized) is listed as 8.1 and the pKa (Asp26; reduced) is listed as 9.9.

For “Staphylococcal nuclease (SNase) A132K variant (Staphylococcus aureus; A132K)”, the pKa (Lys132) is given as 10.4.

In the case of “Staphylococcal nuclease (SNase) T41D variant (Staphylococcus aureus; T41D)”, the pKa (Asp41) is given as “∼4”.

For Glutathione S-transferase (PDB 5X79), the pKa (Cys48) is given as 3.7.

For “Barnase (Bacillus amyloliquefaciens (not stated in the article))”, the pKa (Asp75) is listed as 3.1.
